Values belong to the molecule of their own block, whether it stands above or below them.
How the values were obtained:
[1] = target: POB1 phospho-peptide 347KTHSRASpSLDLNKVF361 (human); assay: peptide or protein array; SPOT peptides on a cellulose membrane; GST fusion proteins (10 micrograms/ml) in PBS/BSA 5%; anti-GST antibody, peroxidase labeled secondary antibody, chemiluminescence in arbitrary units
[2] = target: POB1 fifteenmer peptide 338-352 with Pro345 replaced by alanine (human); assay: as above
[3] = target: POB1 fifteenmer peptide 338-352 with Pro343 replaced by alanine (human); assay: as above
[4] = target: T1, GST-SH3 of Amphiphysin II (UniProt O00499 520-593); assay: pull-down; GST or GST fusion proteins (100 μg) adsorbed to glutathione-sepharose 4B beads, two hours at 4°C with 1 mg of HEK293 cellular extract in JS lysis buffer (50 mM Hepes, 150 mM NaCl, 1% Triton-X100); washed three times in ice-cold PBS; Western blot
T1 construct: Amphiphysin II, SH3 domain; cloned into the SalI and BglII sites of pYEX (modified pGEX-2TK); also called AmphIISH3; GST-Amphiphysin II SH3; source: expressed in bacteria; on glutathione-Sepharose 4B beads (pull-down) or purified (peptide arrays)
T1 sequence (looked up): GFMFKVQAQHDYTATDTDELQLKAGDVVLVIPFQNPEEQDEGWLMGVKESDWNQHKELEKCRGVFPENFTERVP

[5] = target: GST-SH3 carboxy-terminal of Grb2; assay: as above
14-3-3 sigma = 14-3-3 sigma (UniProt P31947); assay: SPOT peptide array, GST-14-3-3 sigma overlay
[6] = target: POB1 fifteenmer peptide 338-352 with proline 339 replaced by alanine (human); assay: peptide or protein array; SPOT peptides on a cellulose membrane; GST fusion proteins (10 micrograms/ml) in PBS/BSA 5%; anti-GST antibody, peroxidase labeled secondary antibody, chemiluminescence in arbitrary units
[7] = target: T1, GST-SH3 of Amphiphysin II; assay: as above; settings: both partners purified

Molecule: GST-14-3-3 sigma (from UniProt P31947 1-248) (natural protein)
signal intensity (arbitrary units (a.u.)) [1]: 8500

Molecule: GST-SH3 carboxy-terminal of Grb2 (domain or fragment)
percent of the binding to the unmutated peptide [2]: 30%
percent of the binding to the unmutated peptide [3]: 30%

Molecule: Myc-tagged POB1 (full length) (natural protein)
percent of the input bound [4]: 25%
percent of the input bound [5]: 4%

Molecule: POB1/REPS2 15-mer centred on Ser322 (from UniProt Q8NFH8) pS322 peptide (No. 196)
other: spot intensity (14-3-3 sigma; reference: unphosphorylated peptide (No. 232), sites S322): none in both; reference 1400

The remaining lines, values ahead:

other: spot intensity (14-3-3 sigma; reference: unphosphorylated peptide (No. 238), sites S354): gained; reference 991
Molecule: POB1/REPS2 347-361 (from UniProt Q8NFH8) pS354 peptide

percent of the binding to the unmutated peptide [6]: 31%
B1: GST-SH3 of Amphiphysin II (domain or fragment)
chain: T1 sequence (looked up)

binding result [7]: binds
B2: POB1 fifteenmer peptide 338PPTPPPRPQKTHSRA352 (peptide)
peptide: PPTPPPRPQKTHSRA
notes: numbers count on: isoform 2, Q8NFH8-2; source: SPOT synthesis on a cellulose membrane

Reference: PMC2494995, “The central proline rich region of POB1/REPS2 plays a regulatory role in epidermal growth factor receptor endocytosis by binding to 14-3-3 and SH3 domain-containing proteins” (BMC Biochemistry, 2008)
